Results published in patent publication US20160326219A1, “OPTICALLY ACTIVATED RECEPTORS” (IST AUSTRIA (INSTITUTE OF SCIENCE AND TECHNOLOGY AUSTRIA), priority 2013, published 2016).

How the values were obtained:
[1] = system: mFGFR1-related signaling pathways; assay: Detection of additional signaling pathways, Cignal Reporter assays (HEK293 cells); format: cell-based, human; conditions: ~3 μW/mm^2, FIG. 3
Description: Activation of additional mFGFR1-related signaling pathways was assayed with Cignal Reporter assays (Qiagen, Hilden, Germany) consisting of mixtures of inducible pathway focused transcription factor-responsive firefly luciferase constructs and a constitutively expressing Renilla luciferase construct. Cells were transfected with 100.3 ng total DNA per well (receptor and reporter at ratio of 1:300) using Lipofectamine 2000 and thereafter treated as described above for detection of MAPK signaling. Cells were processed with the Dual-Glo® Luciferase Assay System (Promega) and signals detected with the microplate reader.

M38K cells [2] = assay: Gene expression analysis, qPCR (M38K cells); format: cell-based, human
Description: 5×10^4 M38K cells were seeded into each well of a 6-well plates. After 24 h, cells were illuminated with a cycle of 5 min light/15 min dark for 48 h. Control cells were kept in the dark. Total RNA was extracted with TRIZOL (LifeTechnologies) and reverse transcribed with MMLV reverse transcriptase (Thermo Scientific). cDNAs corresponding to 50 ng RNA per sample were subjected to SYBR green qPCR on an Abi Prism 7500 Sequence Detection System using published primers (cf. Sakuma, 2012; #2508). GAPDH was used for normalization and fold change of expression level was calculated as 2-ddCt of illuminated versus non-illuminated cells.

blood endothelial cells = assay: Stimulation and Western blot (hBE cells); format: cell-based; conditions: ~3 μW/mm^2
Text: (§1) M38K and SPC212, two malignant pleural mesothelioma cell lines, were maintained in RPMI1640 supplemented with 10% FBS. Telomerase-immortalized microvascular hBE cells were maintained in Clonetics EGM2 MV endothelial growth medium (Lonza, Wakersville, Md.) supplemented with 5% FBS. For retrovirus generation, Opto-mFGFR1 or mCherry as control was subcloned into pQCXIP (Clontech, Mountain View, Calif.) using EcoRI and NotI restriction enzymes. Viral particles were generated in HEK293 cells by co-transfection with the helper plasmids pVSV-G and p-gag-pol-gpt. Supernatants were used to transduce M38K, SPC212 or hBE cells grown to 50% confluency in 6-well plates. Cells were selected with 0.8 μg/ml puromycin for 10 d and transgene expression was verified by immunoblotting.
(§2) For immunoblotting, 5×10^5 cells were seeded in each well of 6-well plates. After 24 h, medium was replaced with reduced serum medium (M38K, SPC212). After additional 20 h, cells were transferred to the stimulation incubator and illuminated for 1, 5 or 15 min or shielded from light. Cells were then either immediately or after additional 5, 15 or 30 min in the dark washed and lysed in 50 μl lysis buffer per well on ice. Lysates were sonicated and centrifuged (12000 g, 5 min, 4° C.). […] Chemiluminescence was developed with WesternC reagent (Biorad, Hercules, Calif.) and signals recorded on X-ray film (GE Healthcare).

M38K cells [3] = assay: Cell cycle distribution by flow cytometry (M38K cells); format: cell-based, human
Description: Cell cycle distribution was analyzed by flow cytometry. 5×10^5 M38K cells were seeded in 25 cm^2 tissue culture flasks. After 24 h, cells were stimulated for 1 h or kept in the dark. After additional 24 h, cells were fixed in ethanol (70%), treated with 50 μg/ml RNAse A and 50 μg/ml propidium iodide (PI). Flow cytometry was performed on a FACSCalibur (BD Biosciences, Schwechat, Austria) and cell cycle distribution calculated with ModFit LT software (Verity Software House, Topsham, Me.).

M38K cells [4] = assay: All optical evaluation of pharmacological compounds / cell morphology, M38K cells stably expressing Opto-mFGFR1; format: cell-based, human; conditions: M38K cells; blue light (Opto-mFGFR1) or added growth factor
Text: as §1
10^5 M38K cells were seeded in each well of 6-well plates. After 24 h, cells were stimulated for 1 h or kept in the dark. FGF2 (Sigma) or PD166866 (Pfizer Global Research and Development, New London, Conn.) were added as indicated. After additional 24 h, cells were photographed on the Nikon Ti300 microscope. For quantification of cell morphology, all cell perimeters in randomly selected sections of phase contrast images were traced and aspect ratios (defined as length of major axis divided by length of minor axis of a fitted ellipse) calculated with ImageJ software (National Institute of Health). Greater than 50 individual values contributed to each average.
For M38K cells, cell morphology was evaluated as described above but followed by automated image analysis. Phase contrast images (typically three images from two wells) were automatically analyzed. Images were converted to greyscale, resized and divided into segments for local threshold correction (threshold was defined as most probably intensity multiplied by a constant factor of 0.85; Igor Pro, Wavemetrics, Lake Oswego, Oreg.). Cells were identified and measured in FIJI/ImageJ (Max Planck Society/National Institutes of Health; size limit: 40 to 600 pixel̂2, circularity limit: 0.01 to 1.00). Occasionally, outliers were removed manually. Typically 200 to 1800 individual values contributed to the averages of FIG. 9. For HEK293 cells, MAPK pathway activation was measured using luciferase as described above.

hBE cells = assay: In vitro angiogenesis (sprouting) assay (hBE cells); format: cell-based; conditions: hBE cell spheroids, FIGS. 7b and c
Description: For spheroid generation, hBE cells were suspended as hanging drops (450 cells in a 25 μl drop) in M199 medium (Sigma) supplemented with 10% FBS, L-glutamine, 2.2 g/I NaHCO3 and 20% methylcellulose (Sigma) over night in a standard tissue culture incubator. The following day, spheroids were washed in PBS containing 10% FBS, centrifuged, resuspended in Methocel/20% FBS, mixed (1:1) with neutralized rat-tail collagen and seeded into non-adhesive 24-well plates (Greiner Bio-one, Kremsmünster, Austria). After solidification of the collagen, VEGFA (30 ng/ml) or PD166866 (10 μM) were added. Plates were stimulated with light for 5 min every 20 min for 10 h or kept in the dark. After stimulation, 1 ml of 8% paraformaldehyde was added to each well and spheroids were photographed on the Nikon microscope. Cumulative sprout lengths per sphere from at least 8 spheroids per group were measured (ImageJ).

SPC212 cells = assay: Stimulation and Western blot (SPC212 cells); format: cell-based, human; conditions: ~3 μW/mm^2
Text: as §1, §2

B1: Opto-mFGFR1: chimeric receptor of mFGFR1 intracellular domain and VfAU1-LOV, SEQ ID NO: 58 (protein)
chain: MGSSKSKPKDPSQRLDMKSGTKKSDFHSQMAVHKLAKSIPLRRQVTVSADSSASMNSGVLLVRPSRLSSSGTPMLAGVSEYELPEDPRWELPRDRLVLGKPLGEGCFGQVVLAEAIGLDKDKPNRVTKVAVKMLKSDATEKDLSDLISEMEMMKMIGKHKNIINLLGACTQDGPLYVIVEYASKGNLREYLQARRPPGLEYCYNPSHNPEEQLSSKDLVSCAYQVARGMEYLASKKCIHRDLAARNVLVTEDNVMKIADFGLARDIHHIDYYKKTTNGRLPVKWMAPEALFDRIYTHQSDVWSFGVLLWEIFTLGGSPYPGVPVEELFKLLKEGHRMDKPSNCTNELYMMMRDCWHAVPSQRPTFKQLVEDLDRIVALTSNQEYLDLSIPLDQYSPSFPDTRSSTCSSGEDSVFSHEPLPEEPCLPRHPTQLANSGLKRRVETGPDYSLVKALQMAQQNFVITDASLPDNPIVYASRGFLTLTGYSLDQILGRNCRFLQGPETDPRAVDKIRNAITKGVDTSVCLLNYRQDGTTFWNLFFVAGLRDSKGNIVNYVGVQSKVSEDYAKLLVNEQNIEYKGVRTSNMLRRKTGGSGVDYPYDVPDYALD
modifications: mFGFR1-VfAU1-LOV
In the case of B1, the “Activation of additional pathways linked to mFGFR1 in response to blue light” value [1] is reported as “activates”, the “Gene expression changes upon light stimulation” value (M38K cells [2]) is reported as “EMT-like gene expression changes” and the “Phosphorylation upon blue light stimulation” value (blood endothelial cells) is reported as “rapid phosphorylation of Opto-mFGFR1 and ERK1/2”. The “Cell cycle distribution upon light stimulation” value (M38K cells [3]) was “a shift of cell cycle distribution towards the S-phase”, the Cell morphology response (M38K cells [4]) was “EMT-like morphological alterations” and the “Morphological alterations (sprouting) upon blue light illumination” value (hBE cells) was “induced morphological alterations”. The “Phosphorylation upon blue light stimulation” value (SPC212 cells) was “rapid phosphorylation of Opto-mFGFR1 and ERK1/2 as well as AKT and phospholipase Cy (PLCy)”.
